Laboratory results from patent publication US20220119467A1.
No end group written: not given here.

T1: dCas9-VP64-RFP-degronSwitcha
T1 sequence: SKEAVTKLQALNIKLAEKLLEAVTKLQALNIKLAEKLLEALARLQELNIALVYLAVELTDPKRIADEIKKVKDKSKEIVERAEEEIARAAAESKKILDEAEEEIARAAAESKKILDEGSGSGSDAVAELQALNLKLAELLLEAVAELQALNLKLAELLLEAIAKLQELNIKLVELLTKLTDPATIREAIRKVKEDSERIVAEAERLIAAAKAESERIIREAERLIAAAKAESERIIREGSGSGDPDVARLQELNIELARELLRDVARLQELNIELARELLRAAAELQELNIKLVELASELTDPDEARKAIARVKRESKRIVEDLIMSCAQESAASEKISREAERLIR

T2: YFP-degronSwitcha
T2 sequence: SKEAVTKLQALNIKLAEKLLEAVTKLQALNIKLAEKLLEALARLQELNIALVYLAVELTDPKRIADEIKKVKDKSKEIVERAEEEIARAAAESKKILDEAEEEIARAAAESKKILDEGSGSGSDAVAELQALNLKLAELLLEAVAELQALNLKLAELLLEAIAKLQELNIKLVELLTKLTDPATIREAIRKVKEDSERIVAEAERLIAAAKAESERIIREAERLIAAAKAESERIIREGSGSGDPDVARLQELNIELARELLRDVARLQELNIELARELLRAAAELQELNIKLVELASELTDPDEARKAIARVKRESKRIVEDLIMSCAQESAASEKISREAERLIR


Legend:
Test in all cases: cell-based or functional assay
[1] = target: T1, dCas9-VP64-RFP-degronSwitcha
[2] = target: T2, YFP-degronSwitcha
[3] = target: SynTF-RFP-degronSwitcha

Binder	decrease in RFP fluorescence at 31.25 nM E2, flow cytometry, S. cerevisiae [1] [%]	decrease in pTet7x-YFP reporter fluorescence at 31.25 nM E2, flow cytometry, S. cerevisiae [1] [%]	YFP fluorescence at steady state, flow cytometry, S. cerevisiae [2] [%]	decrease in RFP fluorescence at 31.25 nM E2, flow cytometry, S. cerevisiae [3] [%]	decrease in pSynTF-YFP reporter fluorescence at 31.25 nM E2, flow cytometry, S. cerevisiae [3] [%]
Keya-BFP (designed binder, not shown: large carriers, not fully specified (C-terminus); also: linker to BFP not given here) EARKAIARVKRESKRIVEDAERLIREAAAASEKISREAERLIREAAAASEKISRE	78	41	< 73		
keya-BFP-NLS (designed binder, not shown: large carriers, not fully specified (C-terminus); also: BFP and NLS sequences not given here) EARKAIARVKRESKRIVEDAERLIREAAAASEKISREAERLIREAAAASEKISRE				61	82
